Assay results reported in the supplement of paper PMC9170038.

Test system: MS2 coat protein
Assay: apparent KD of MS2 coat protein; designed switch direction (-1 OFF switch, 1 ON switch): 1; higher = weaker reporter binding
Procedure, shortened: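 The reported apparent KD is a per-design median over clusters, from curve fits of normalised cluster fluorescence. Protein titrations used SNAP-549-labelled MS2 coat protein, doubled from 0.7 or 1.5 nM to 3 µM, in Tris-HCl pH 7.5 buffer with KCl, MgCl2, BSA, DTT, tRNA and Tween-20, with no input, 200 uM small-molecule ligand, or an oligonucleotide input. The RNA switches were transcribed on Illumina chips by stalled E. coli RNA polymerase.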

[1] = input ligand: microRNA oligo, concentration not stated
[2] = Eterna round: R95, input ligand: FMN 200 uM
[3] = Eterna round: R95, input ligand: microRNA oligo, concentration not stated
[4] = Eterna round: R95, input ligand: none

Sequence | apparent KD of MS2 coat protein (input ligand: FMN 200 uM) | apparent KD of MS2 coat protein [1] | apparent KD of MS2 coat protein (input ligand: none) | apparent KD of MS2 coat protein [2] | apparent KD of MS2 coat protein [3] | apparent KD of MS2 coat protein [4]
GGUGGGUUACUACCAACACAUGAGGAUCACCCAUGUUUUGGGAAGGAUAUGGUACCUAUUUGGUACCAGAAGGUCCUGUUGGUG [salish99_SSNG3_r04_706] (Eterna round: R96, puzzle: Same State NG 3) | 36.6 nM | 105 nM | 116 nM | – | – | –
GCAACUCGUAGAGGAUAUGUCCAGCAAGUAUCACAUGAGGAUCACCCAUGUUCAGCUCUACACCUGCAGAAGGCUAUUAGUGCA [Eternabot solution 46] (Eterna round: R96, puzzle: Same State NG 2) | 15.8 nM | 13.6 nM | 17.2 nM | – | – | –
UCUUGGUUUUUGCUCGUUUUUUGUGUUGAACAUGAGGAUCACCCAUGUAUUGUACGGUCCAAUUUGAUAAUGGUCCG [JMF 27] (puzzle: Sensor for hsa-mir-208a) | – | – | – | 25.1 nM | 13.9 nM | 25.6 nM
CCGUUGAUGGGACAGGAUAUGACUGUCGUCACAUGAGGAUCACCCAUGUCCCGGCAAUGCCACCGUUAGAAGGGUCCCGUCUCGG [Edraedbibe] (puzzle: Same State 2) | – | – | – | – | 12 nM | –
UUUAAACAUGAGGAUCACCCAUGUUUUUUUAUGGGAGGAUAUCUAAGUUAAUUAUAUUAAGGAGAAGGCCUAUUUU [× ×•×ª×• ×ž×“×™× ×” × ×—×ª-04] (puzzle: Same State 1) | – | – | – | – | 124 nM | –
GGGUGUGGAAGGAAAGACAGGGAAAGGAAACAUGAGGAUCACCCAUGUGAAGGAAGAAAGGGAGCUCGUCUUAUAAG [JR_SHM208A_Sub002] (puzzle: Sensor for hsa-mir-208a) | – | – | – | 26 nM | 27.6 nM | 35 nM
GCGAAACAUGAGGAUCACCCAUGUAUGGCGGGCACAGGAUAUCGUGGUUCGCUCAUACUACGAGAAGGGUGAAAAG [Orqu] (puzzle: Same State 1) | – | – | – | 24.1 nM | 18.4 nM | 16.9 nM
GAUCGUUUGAUAGGAUAUCGCUAUACAUGAGGAUCACCCAUGUUUACCACGCUGGUUUUUCGUACCGAGAAGGAUUCUGAUGAU [JL JR sub007 mod 5] (Eterna round: R96, puzzle: Same State NG 2) | 31.4 nM | 24.4 nM | 35.4 nM | – | – | –
ACAUGAGACUUAGGAUAUCUUGUACCUACAUGUGACAUGAGGAUCACCCAUGUGGUAAGUAUGAGAGAGAAGGAAGAGAUAUGU [Equivalence 37 - Jieux - Same State NG 2] (Eterna round: R96, puzzle: Same State NG 2) | 19.7 nM | 14.4 nM | 23.2 nM | – | – | –
AGAAAACAUGAGGAUCACCCAUGUAUAGUGAAUACAGGAUAUCACCGGCGGAAUAGCCAGUGAGAAGGGUGAUCGC [Aarusxe] (puzzle: Same State 1) | – | – | – | 71.5 nM | 11.5 nM | 41 nM
GCUCGAUGAUAGUCCUACAUGAGGAUCACCCAUGUAAGUGGGCAGGAUAUCUACAUGCAGAAUGUAGAGAAGGGCCCGUCGAGC [SameState NG3 #56] (Eterna round: R96, puzzle: Same State NG 3) | 16.1 nM | 16.4 nM | 23.2 nM | – | – | –
AAAAGACAUGAGGAUCACCCAUGUACCAGGUCCACAGGAUAUCAUGCGUGGUUGAAUUCAUGAGAAGGGUGAGACA [Getied] (puzzle: Same State 1) | – | – | – | 48.7 nM | 188 nM | 311 nM
AAUUCACGAGCACAGGAUAUGCUUGCCAACACAUGAGGAUCACCCAUGUCGGGCUACGAAUAAGAGCAGAAGGGUGACUCAUGAU [Atesusgela] (puzzle: Same State 2) | – | – | – | 16.8 nM | 19.2 nM | 13.9 nM
GAAGGAUGAGCGUAGGAUAUAGGAGGAGUGACAUGAGGAUCACCCAUGUGGUAGGAGGGAGGGUACUAGAAGGACGAGGAAGAGG [JR_SS2_Sub069] (Eterna round: R96, puzzle: Same State 2) | 102 nM | 49.7 nM | 84 nM | – | – | –
GGUGCCAAAUAAGCCUACAUGAGGAUCACCCAUGUAUGUAGGCAGGAUAUCGUAUGCAAAGCAUACGAGAAGGGCCGAGGCACC [Mat - Same State NG 3 - JL Mod - D57] (Eterna round: R96, puzzle: Same State NG 3) | 23.8 nM | 29.3 nM | 47.1 nM | – | – | –
UUUAGAUUCAGAGGAUAUUGAUGUUGUAAGUAACAAGAAGGCUGAAUGGUUAGAAUUGUUUAUUAACAUGAGGAUCACCCAUGU [JR_SSNG1_Sub009] (Eterna round: R96, puzzle: Same State NG 1) | 17 nM | 17.1 nM | 20.8 nM | – | – | –
GCGAGCGUACUUGCUACAUGAGGAUCACCCAUGUUUAUUGGACAGGAUAUGGUACCGUUUCGGUACCAGAAGGGUCCACAUGUG [JL SSNG3 3.86] (Eterna round: R96, puzzle: Same State NG 3) | 106 nM | 182 nM | 289 nM | – | – | –
AGAGUGUAUCCACAGGAUAUGCGAGCCGACACAUGAGGAUCACCCAUGUAGUCCUAAAGGGCUGAGCAGAAGGGUGGUAAGGCUC [Xelear] (puzzle: Same State 2) | – | – | – | 31.7 nM | 169 nM | 285 nM
GUUACAUGAGGAUCACCCAUGUAUGUGUGGGAGUAAGUGUCUUAGGAUAUCUAUGAUUUAAUUCAAGAGAAGGAAGAUUGUUGU [JMF's solution 85] (Eterna round: R96, puzzle: Same State NG 3) | 115 nM | 70.7 nM | 79.5 nM | – | – | –
UUUUUUAAGACGAGACAAGCUUUUUGAUCACAUGAGGAUCACCCAUGUCUCGUCUUAUUUUUUUUUUUUUUUUUUUU [BA Sensor hsa-mir-208a - 2 - 3] (puzzle: Sensor for hsa-mir-208a) | – | – | – | 21.4 nM | 5.76 nM | 16.9 nM
UUCCCAGCGGGAGGAUAUGGUGCCUUGUUGGUGCUAGAAGGUCCAACAUGAGGAUCACCCAUGUGGGAGUGGUCGAGAGACCUC [SS NG10LRO10] (Eterna round: R96, puzzle: Same State NG 1) | 307 nM | 238 nM | 427 nM | – | – | –
